In paper PMC8486122, “Structural basis for antibody binding to adenylate cyclase toxin reveals RTX linkers as neutralization-sensitive epitopes” (PLoS Pathogens, 2021):

Key:
[1] = target: T1, RTX751 (ACT residues 751–1706) (Bordetella pertussis (strain Tohama I / …, UniProt P0DKX7)); assay: SPR; conditions: both partners purified
T1 construct: also called full RTX domain; full RTX

[2] = target: T2, 123cap (cap fusion variant F5: RTX blocks I–III fused to the block V capping structure) (Bordetella pertussis (strain not named …, stabilised)); assay: SPR; conditions: both partners purified
T2 construct: source: E. coli BL21 DE3, purified (Ni-NTA, SEC); not shown: 8xHis, N-terminal, kept
T2 chain: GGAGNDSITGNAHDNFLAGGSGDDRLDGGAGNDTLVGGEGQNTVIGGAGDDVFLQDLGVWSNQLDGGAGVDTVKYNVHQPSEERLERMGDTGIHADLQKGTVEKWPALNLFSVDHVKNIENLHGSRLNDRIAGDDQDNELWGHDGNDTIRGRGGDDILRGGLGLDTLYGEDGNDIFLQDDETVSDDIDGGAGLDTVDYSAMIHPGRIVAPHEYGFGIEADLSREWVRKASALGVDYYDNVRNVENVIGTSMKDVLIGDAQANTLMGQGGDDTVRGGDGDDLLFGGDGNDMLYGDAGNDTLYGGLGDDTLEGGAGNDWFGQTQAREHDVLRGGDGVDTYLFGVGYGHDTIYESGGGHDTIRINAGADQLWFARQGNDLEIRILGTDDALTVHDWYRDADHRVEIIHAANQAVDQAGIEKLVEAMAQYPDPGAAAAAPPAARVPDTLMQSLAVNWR

B1: M2B10 Fab (Fab, V domains shown)
VH: EVQLQQSGAELVRPGTSVKVSCKASGYAFTNYLIEWVKQRPGQGLEWIGVINPGIGNTNYNEKFKGKATLTADKSSSTVYMQLSSLTSDDSAVYFCARGLNYGSSQHWYFDVWGAGTSVTVSS
VL: IVMTQSPAILSASLGERVTMTCTASSSVSSSYLHWYQQKPGSSPKLWIYSTSNLASGVPARFSGSGSGTSYSLTISSMEAEDAATYYCHQYHRSPPTFGAGTKLEIK
Kd [1]: 0.75 nM | Kd [2]: 0.6 nM

B2: M1H5 Fab (Fab, V domains shown)
VH: EVNLVESGGDLVKPGGSLKLSCAASGFTFSSYGMSWVRQTPDKRLEWVATISSGGTYTYYPDSVKGRFTISRDNAKNTLYLQMSSLKSEDTAMYYCAREIMRGGGYYFDYWSQGTTLTVSS
VL: DIQMIQSTSSLSASLGDRVTISCRASQDISNYLNWYQQKPDGTVKLLIYYTSRLHSGVPSRFSGSGSGTDYSLTISNLEQEDIATYFCQQGNTLPYTFGGGTKLEIK
Kd [1]: 0.8 nM | Kd [2]: 0.7 nM
